Source: paper PMC6147952, “Acylated-acyl carrier protein stabilizes the Pseudomonas aeruginosa WaaP lipopolysaccharide heptose kinase” (Scientific Reports, 2018)

Target: T1, C-terminal hexa-histidine tagged P. aeruginosa WaaP (1–264) (P. aeruginosa, UniProt Q9HUF7 1-264, selenomethionine substituted)
T1 construct: WaaP, lipopolysaccharide core heptose kinase of Pseudomonas aeruginosa (strains derived from PAO1), residues 1-264; A loop (54-72) is disordered in the crystal; also called WaaP-His; LPS heptose kinase WaaP; source: E. coli BL21(DE3)/pLysS, pET21b-waaP, purified (IMAC, Mono-Q, CM-sepharose, Superdex75); not shown: His6, C-terminal, kept
T1 sequence (looked up): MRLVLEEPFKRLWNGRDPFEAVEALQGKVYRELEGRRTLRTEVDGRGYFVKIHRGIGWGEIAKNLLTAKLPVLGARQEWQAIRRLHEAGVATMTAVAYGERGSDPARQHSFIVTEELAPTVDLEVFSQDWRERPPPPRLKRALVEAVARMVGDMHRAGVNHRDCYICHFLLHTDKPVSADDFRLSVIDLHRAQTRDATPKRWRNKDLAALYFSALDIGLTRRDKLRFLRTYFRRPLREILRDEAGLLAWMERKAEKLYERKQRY
Experiment: crystal structure; selenomethionine WaaP-His co-purified with E. coli acyl-ACP; hanging drops at 4 °C, 100 mM HEPES-NaOH pH 7.4, 5% Jeffamine M-600; 2.5 Å
Settings: both partners purified

B1: E. coli acylated acyl-carrier protein (acyl-ACP) (natural protein, UniProt P0A6A8 1-78, looked up)
chain: MSTIEERVKKIIGEQLGVKQEEVTNNASFVEDLGADSLDTVELVMALEEEFDTEIPDEEAEKITTVQAAIDYINGHQA
modifications: phosphopantetheine on S36 carrying a C16:0 (palmitoyl) or C18:1 acyl chain (palmitoyl modelled in the crystal); selenomethionine
notes: acyl carrier protein of E. coli, 77 amino acids as printed; In the in vitro synthesis experiment (functional row) the ACP was purified E. coli holo-ACP palmitoylated by V. harveyi AasS; Its construct is described only in the Supplementary Information; also called palmitoyl-ACP; source: endogenous, E. coli BL21(DE3)/pLysS, co-purified with WaaP-His
- stoichiometry N: 1
